These results are taken from the nanobody polyreactivity screen of Harvey et al. (2022).

A short description of the data set: yeast display, Sf9 membrane polyspecificity reagent, FACS + sequencing; frameworks hold sequencing errors. In outline: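 Using colony PCR, genes from sorted yeast display clones were amplified, then sequenced on MiSeq at 2 × 250 and filtered by CDR length. The clones had been stained with 10% biotinylated, detergent-solubilized Sf9 membrane reagent for 1 hour at 4 °C and sorted by FACS into low and high (top ~1%) gates on anti-HA and streptavidin fluorescence. Polyreactivity labels come from the gate of origin.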
As for “QVQLVESGGGLVQAGGSLRLTCAASGRTSNGYAMGWYRQAPGNERELVAAYADSVKGRFTISRDNAKNTVYLQMNSLKPEETAVYYCNADYDPVSRVGYVYWAYYYWGQGTQVTVSS”, the “polyreactivity (PSR sort gate)” value was “low polyreactivity”.

“QVQLVESGGGLVQAGGSLRVSCAASGFTFRHNAMGWYRQAPGKERELVAVISSTGTYADSVKGRFTISRDNAKNTVYLQMNSLKPEDTAVYYCAAGSDYGGSYAYDYWGQGTQVTVSS”: the “polyreactivity (PSR sort gate)” value was “low polyreactivity”.

With “QEQLQDSGGGLVQAGGSLRLSCAASGYISSLAAMGWYRQAPGKERDLVAGNDLGTITNYADSVKGRLTISRDNAKNNVYLQMNSLKPEDTEVYYCAKYRWYGVYWGQGTHVTVSS”, the “polyreactivity (PSR sort gate)” value is “low polyreactivity”.

On to “QVQLVESGGGIFQAGGSLRLSCSASGNTLVIYAMGWYRQAPVKESELVAAISRAGGTTYYADSVKGRFTISRDKAKNTVYLQMNSLKPEDTEVFYCNAGDHMRKRYGISATWGYGYGYWGQGSQVTVSS”, for which the “polyreactivity (PSR sort gate)” value is given as “high polyreactivity”.

As for “QVQLVESGGGLVQAGGSLRLSCAACGSIFEFNTMGWYRQAPGKERELVAAISSSGGRTYYADSVKGRFTISRDNAKNSVYLQMNSLKPEDTGVYYCNARRLVHNPDYDYWGQGTQVTVSS”, the “polyreactivity (PSR sort gate)” value is “high polyreactivity”.

Regarding “QVQLVESGGGLVQAGGSLRLSCAASGRIFATNAMGWYRQAPGKERELVATITRSAGRTYYADSVKGRFTISRDNEKNTVYLQMNILKPDVTAVYYCAADGYSTAVDDTVRYIVEYEFWGQGTQVTVSS”, the “polyreactivity (PSR sort gate)” value is “low polyreactivity”.

In the case of “QVHLVESGGGLVQAGGSLRLSCAASGRNFYANAMGWYRQAPGKERELVAAISSGGSTYYADSVKGRFTISRDNAKNTVYLQMKSLKPEDTAVYYCAVYTHKKVRPEYDYWGQGTQVTVSS”, the “polyreactivity (PSR sort gate)” value is reported as “low polyreactivity”.

For “QVQLVESGGGLVQAGGSLRLSCAASGSTFGDYAMGWYRQGPGKERELVASINQNGGDTYYADSVKGRFTISRDNAKNTVYLQMNSLKPEDTAVYYCAAEAGYYFQTVAIDMGYWGQGTQVTVSS”, the “polyreactivity (PSR sort gate)” value is “low polyreactivity”.

In the case of “QVQLVESGGGLVQAGGSLRLSCAASGRTFRAYSMGWYRQAPGKERELVAASSRSGGRTYYADSVKGRFTISRDNAKITVFFQINSLKPEDTAVYYCAAETKYNTHDYYYWGQATQVTVSS”, the “polyreactivity (PSR sort gate)” value is listed as “high polyreactivity”.

Consider “QVQLVESGGGLVQAGGSLRLSCAASGYTFYFYARGWYRQAPGKERELGAAITGGGTTSYADSVKGRFTISRDNAKNTVYLQMNSLKPEDTAVYYCNLLFADKSDYWGQGTQVTVSS”, for which the “polyreactivity (PSR sort gate)” value is recorded as “low polyreactivity”.

Consider “QVQLVESGGGLVQAGGSLRLTCAASGSTFPYNAMGWYRPATGKERELVASITGGRKKYADSVKGRFTISRDNEKNTVYLQMNRLKREDTAVYYCAADYYSLWIRRDSNYWGQGTQVTVSS”, for which the “polyreactivity (PSR sort gate)” value is recorded as “low polyreactivity”.

For “QVQLVESGGGLVQAGGSLRLSCAASGRIFRYNAMGWYRQPPGKEREFVARISVITGRTYYADSVKGRFTISRDNAKNTVYLQMNSLKPEDTAVYFCAADAGYNYRYLLRGDYWGQGTQVTVSS”, the “polyreactivity (PSR sort gate)” value is “high polyreactivity”.

Consider “QVQLVESGGGLVQAGGSLRLSCAASGRTFRYNAMGWYRQAPGKERELVASITSGGSTNYADSVKGRFTISRDNAKNTVYLQMNSLKPEDTAVYYCAADERRPYWLHSIGSGRPFDYWGQGTQVTVSS”, for which the “polyreactivity (PSR sort gate)” value is reported as “low polyreactivity”.

Take “QVQLVESGGGLVQAGGSLRLSCAASGNTFYVYAMGWYRQAPGKERELVADITWSGGSTYYADSVKGRFTISRDNAKNTVYLQMNSLKPEDTAVYYCNADYYYQLWELEYYYWGQGTQVTVSS”: the “polyreactivity (PSR sort gate)” value is on record as “high polyreactivity”.

In the case of “QVQLVESGGGLVLAGGSLRLSCPASGFTFRYYAMGWSRQAPGKDRELVAAISVSGGSTYYADSVKGRFTISRDNAKNSVYLQMNILKPEDTAVYYCNARRNVGFGYWGQGTQVTVSS”, the “polyreactivity (PSR sort gate)” value was “high polyreactivity”.

On to “QVQLVESGGGLVQAGGSLRLSCAASGITFGYYAMGWYRQAPGKEREFVAGITTSGGTTYYADSVKGRFTISRDNENNTVYLHMNSLKPEDTAVYYCAVYGGVKRGSFYYWGQGTQVTVSS”, for which the “polyreactivity (PSR sort gate)” value is reported as “low polyreactivity”.

As to “QVQLVESGGGLVQAGGSLRLSCAASGSTLVDYAMGWYRQAPGKERELVATISFRGGSTYYADSVKGRCTISRDNAKNTVYLQMNSLKPEDTAVYYCAAEYGPSLYYYYGHAAYAYGYWGQGTQVTVSS”, the “polyreactivity (PSR sort gate)” value is reported as “low polyreactivity”.

On to “QVQLVESGGGLVQAGGSLRLICAASGSTFGVYDMGWYRKAPGKERELVAAISWRGITYYADSVKGRFTISRDNAKNTVYLQMNSLNPEDTAVYFCASYEWLAYTSAWYGYWGKGTQVTVSS”, for which the “polyreactivity (PSR sort gate)” value is “high polyreactivity”.

As for “QVQLVESGGGLVQAGGSLRLSCAASGGIFYDYAMGWYRQAPGKERELVAAITRSGDSTYYADSVKGRFTISRDNPKNTVYLQMNSLKPEDTAVYYCAADIWSSDYEEFYYWGQGTQVTVSS”, the “polyreactivity (PSR sort gate)” value was “low polyreactivity”.

Turning to “QVQLVESGGGLVQAGGSLRLICAASGSTYDRNVLGWYRQEPGKERELVAAISRVSSTNYADSVKGRFTISRDNAKNTVYLQMNSLKPEDTAVYYCAADRAGSIMNYWGQGTQVTVSS”, the “polyreactivity (PSR sort gate)” value is “low polyreactivity”.

As to “QVQLVESGGGLVQAGGSLRLSCAASGRTFRWYAMGWYRQAPGKERELVAAITGGGRTYYADSVKGSFTISRDYAKNTVYLQMNSLKPEDTAVYYCNKYPSSGNYINAYDYWGQGTQVTVSS”, the “polyreactivity (PSR sort gate)” value is given as “high polyreactivity”.

For “QVQLVESGGGLVQAGGSLRLSCAASGRTLYIYAMGWYRQAPGKERELVAAIRRIGGRTYYADSVKGRFTISRDNAKNTVYLQMNSLKPEDTAVYYCNARSYRLRFSEMDYWGQGTQVTVSS”, the “polyreactivity (PSR sort gate)” value is “high polyreactivity”.

Consider “QVQLVESGGGLVQAGGSLRLSCAASGSIFPKYAMGWDRQAPGKERELVATITWSGSSTYYADSVKGRFTISRDNAKNTVYLQMNSLKPEDTAVYYCAATGWSSFYYRFDYWGQGTQVTVSS”, for which the “polyreactivity (PSR sort gate)” value was “low polyreactivity”.

On to “QVQLVESGGGLVQAGGSLRLSCAASGFIYTYAMGSYRQAPGKERELVAAIRWIGTRTYYADSVKGRFTISRDNAKNTVYLQMNSLKPEDTADYYCAARYYTYDGYSKYDYWGQGTQVNVSS”, for which the “polyreactivity (PSR sort gate)” value is listed as “high polyreactivity”.

For the sequence “QVQLVESGGGLVQAGGSLRLSCAASGFIFKSYAMGWYRQAPGKERELVAAITSGGSTYYADSVKGRFTISRDNAKNTVYLQMNSLKPEDTAVYYCATRYRFGWGLSWYDYWGQGTQVTVSS”, the “polyreactivity (PSR sort gate)” value is listed as “high polyreactivity”.

With “HVQLVESGGGLVQARGSLRLSCAASGSTFYAYDRGWYRQAPGKERELVAAISSTGGRTDYADSVKGRFTISRDNSKNTVYLQMNSLKPEDTAVYYCAARQLSSHYDYWGQGTQGTVSS”, the “polyreactivity (PSR sort gate)” value was “low polyreactivity”.

As to “QVQLVESGGGLVQAGGSLRLSCAASGSIFYTNAMGWYRQAPGKEMEFVASITYRGSNTYYADSVKGRFTISRDNAKTTVYLQMNSLKPEDTAVYYCGADSFYYRPEYDYWGLGTQVTVSS”, the “polyreactivity (PSR sort gate)” value is “low polyreactivity”.

Consider “QVQLVESGGGLVQAGGSLRLSCAASGLILGYYAMGWYRQAPGKERELVATIRRGASTYYADSVKGRFTISRDNAKNTVYLQMNSLKPEDTAVYYCAADTERSLAGGMYYWGEGTQVTVSS”, for which the “polyreactivity (PSR sort gate)” value was “low polyreactivity”.

As for “QVQLVESGGGLVQAGGSLRLSCAASGSIFGSYVMGWYRQAPGKERELVAAISKSGGRTYYADSVKGRFTISRDNAKNTVYLQMKSLKPEDTAVYYCAVLPRVKDGTGGDYWGHGTQVTVSS”, the “polyreactivity (PSR sort gate)” value is on record as “high polyreactivity”.

Turning to “QVQLVESGAGLVHAGGSLRLSCAASGRIFNYYAMGWYRQAPGKESELVAGINWSGTRTYYADSVKGRFTISRDNAKITVYLQMNSLKPEDTAVYYCNAGRTWRAFTGDEYWVQGTQVTVSS”, the “polyreactivity (PSR sort gate)” value was “high polyreactivity”.

Consider “QVQLVESGGGLVQAGGSLRLSCAASGSIFITYAMGWYRQAPGKERELVAAIRDSGDRTYYADSVKGRFTISRDNAKNTVYLQMNSLKPEDTAVYYCNARWQKPLKYDYWGQGTQVTVSS”, for which the “polyreactivity (PSR sort gate)” value is “low polyreactivity”.

For “QVQLVESGGGLVQAGGSLRLSCAASGRIIGYNAMGWYRQAPGKERELVASIRYSGGSTYYADSVKGRFTISRDNAKNTVYLQMNSLKPEDTAVYYCATRVTYRRRFDYWGQGTQVTVSS”, the “polyreactivity (PSR sort gate)” value is listed as “high polyreactivity”.

For “QVQLVESGGGLVQAGGSLRLSCAASGSIFDDNAMGWYRQAPGKERELVAAISANDGSTYYADSAKGRFTISRDNAKNTVYLQMNTLKPEDTAVYYCAAERYLSFDRYLYEYYYWGQGTQVTVSS”, the “polyreactivity (PSR sort gate)” value is on record as “low polyreactivity”.

For the sequence “QVQLVESGGGLVQAGGSLRLSCAASGSTFHYYAMGWYRQAPGKERELVAAISSGGRTNYADSVKGRFTISRDNAKNTVYLQMNSLKPEDTAVYYCAARWSYTKGEFDYWGQGTQGTVSS”, the “polyreactivity (PSR sort gate)” value is given as “high polyreactivity”.

For “QAQLQESGGSLVQAGGGLRLSCAASGYISVGSVMGWYRQAPSKERELVASIDQGANTNYADSVKGRFTISRDNAKNNVYLQMNSLKPEDSAVYYCATETTYILNYWGQGTQVTVSS”, the “polyreactivity (PSR sort gate)” value was “low polyreactivity”.

“QVQLVESGGGLVQAGGSLRLSCAASGGIFGHNAMGWYRQAPGKERELVAAISYTGGSTYYADSVKGRFTISRDNAKNTVNLQMNSLKPEDTAVYYCNAVQRRFRYPFDYWGQGTQVTVSS”: the “polyreactivity (PSR sort gate)” value is “low polyreactivity”.

For the sequence “QVQLVESGGGLVQAGGSLRLSCAASGFIFPSYAMGWYRQAPGKERELVAAITRSSGSTYYADSVKGRFTISRDNAKNTVYLEMNCLKAVDTAVYYCNAFDYSYYRSPEMDYWGQGTQVTVSS”, the “polyreactivity (PSR sort gate)” value is reported as “high polyreactivity”.

For the sequence “QVQLVESGGVLVQAGGILRLSCAESGSIFSYYAMVWYRQAPWKERELVASISWNGTSTYYADSVKGRFTISRDNSKNTVYLQMNSLKPEDTAVYYCNVRFNYRGTYDYWGQGTQVTVSS”, the “polyreactivity (PSR sort gate)” value is reported as “low polyreactivity”.

“QVQLVESGGGLVQAGGSLRLSCAASGFIFGAYAMGWYRQAPGKERELVAAITKSGGRTYYADSVKGRFTISRDNAKNTVYLQMNSLKPEDTAVYFCAAVTRYPREYDYWGQGTQVTVSS”: the “polyreactivity (PSR sort gate)” value is “high polyreactivity”.

Consider “QVQLVESGGGLVQAGGSLRLSCAASGSIFVPYAMGWTRQAPGKERELVAAIRRSGGRTYYADSVKGRFTISRDNAKNNVYLQMKSLKPEYTAVFYCAARQRYFWYTSNYNYWAQGTQVTVSS”, for which the “polyreactivity (PSR sort gate)” value is recorded as “high polyreactivity”.

As for “QVQLVESGGGLVQAGGSLRLTCAASGSTFHLYAMGWYRQAPGKEREFVAAIRGRGGNTYADSVKGRFTISRDNAKNTVYLQMNSLKPEDTAVNYCAAPLLRDLRSPYSYNYWGQGTQVTVSS”, the “polyreactivity (PSR sort gate)” value is listed as “low polyreactivity”.
